According to patent publication US8673306B2, “Compositions and methods of use for antibodies of dickkopf-1” (Novartis AG, priority 2006, dated 2014):
Numbering of substitutions follows the chain as printed. Marks after values point to notes of the source that are not given here. Blank lines part the entries; values can stand above or below the molecule they belong to.

Experiments:
[1] = Fab stability and aggregation (size exclusion chromatography); assay type: physicochemical; conditions: Fab after purification
[2] = molecular target: T1, human recombinant, biotinylated DKK1 (Homo sapiens, UniProt O94907); assay: ELISA binding of matured Fabs in presence of 50% human serum; conditions: Fab 1 μg/ml
T1 sequence (O94907 32-266): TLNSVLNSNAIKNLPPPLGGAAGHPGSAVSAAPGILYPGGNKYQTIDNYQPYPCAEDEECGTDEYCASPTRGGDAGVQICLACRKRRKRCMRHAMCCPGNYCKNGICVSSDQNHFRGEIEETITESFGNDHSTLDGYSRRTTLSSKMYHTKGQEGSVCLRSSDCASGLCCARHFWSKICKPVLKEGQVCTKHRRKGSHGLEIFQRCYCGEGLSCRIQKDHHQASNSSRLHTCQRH
Protocol: Binding specificity of the matured Fabs in the presence of 50% human serum (HS) is determined. Serial dilutions of human recombinant, biotinylated DKK1 in TBS are Coated onto Neutravidin microtiter plates for 2 h at room temperature, from 8 ng DKK1 per well to a concentration of 125 ng DKK1 per well. After coating of the antigen, wells are blocked with TBS/0.05% Tween (TBS-T) supplemented with 1% BSA for 1 h at room temperature. Purified Fabs described above are diluted either in TBS/4% BSA or TBS/50% HS at a final concentration of 1 μg/ml, added to the coated and blocked wells and the plates are incubated for 1 h at room temperature. For detection, an anti-FLAG alkaline phosphatase (AP)-conjugated antibody (1:5000 dilution in TBST) and the fluorogenic substrate AttoPhos (Roche) are used. After each incubation, the wells of the microtiter plates are washed with TBST five times, except after the final incubation step with the labeled secondary antibody when wells are washed three times.
The fluorescence is measured in a TECAN Spectrafluor plate reader. Table 8 summarizes the binding activity of the optimized anti-DKK1 Fabs in presence of 50% human serum compared to binding activity in 4% BSA, which ranges from 83% to 100%. The median value is found to be 93%, thus the anti-DKK1 Fabs are found to fully bind to target in the presence of human serum.

[3] = molecular target: T2, DKK1/LRP6 binding on cell surface (Homo sapiens, UniProt O94907); assay: DKK1-GFP binding to LRP6 on HEK293T cell surface, fluorescence microscopy; assay type: cell-based; conditions: HEK293T transfected with LRP6 and MESD
T2 construct: made in house; LRP6 and MESD transiently transfected into HEK293T
T2 sequence (O94907 32-266): T1 sequence (O94907 32-266)
Protocol: However, upon co-transfection of LRP6 with a surface trafficking chaperone protein, MESD, GFP-tagged DKK1 can be detected on the cell surface, illustrating the specific nature of the DKK1/LRP6 interaction.
The ability of MOR04910 to inhibit DKK1/LRP6 binding on cell surface is measured by fluorescence microscopy. HEK293T cells are either mock transfected and transiently transfected with plasmids encoding LRP6 and MESD. Cells are incubated with DKK1-GFP conditioned medium together with anti-lysozyme FAb or anti-DKK1 FAb MOR04910 for 1 hour at 37° C., and examined by fluorescence microscopy. GFP fluorescence reflects DKK1-GFP binding to overexpressed LRP6 on the plasma membrane.

B1: MOR04456: parental HuCAL GOLD anti-DKK1 Fab; VH SEQ ID NO: 4, VL SEQ ID NO: 23 (antibody, listed as Homo sapiens, V domains shown)
VH: QVQLVESGGGLVQPGGSLRLSCAASGFTFNNYGMTWVRQAPGKGLEWVSGISGSGSYTYYADSVKGRFTISRDNSKNTLYLQMNSLRAEDTAVYYCARTIYMDYWGQGTLVTVSS
VL: DIVLTQSPATLSLSPGERATLSCRASQNLFSPYLAWYQQKPGQAPRLLIYGASNRATGVPARFSGSGSGTDFTLTISSLEPEDFATYYCQQYGDEPITFGQGTKVEIKRT
Size exclusion chromatography [1]: # (monomeric portion >90%)

Binding activity w/50% Human serum vs 4% BSA (%) [2]: >83* %
B2: MOR04907: affinity-optimized Fab from MOR04456; VH SEQ ID NO: 8, VL SEQ ID NO: 27 (antibody, listed as Homo sapiens, V domains shown)
VH: B1 VH
VL: B1 VL with T86V, G93L, D94S, E95L, I97T

B3: MOR04454: parental HuCAL GOLD anti-DKK1 Fab; VH SEQ ID NO: 2, VL SEQ ID NO: 21 (antibody, listed as Homo sapiens, V domains shown)
VH: QVQLVESGGGLVQPGGSLRLSCAASGFTFSNYGLHWVRQAPGKGLEWVSSISYYGSSTYYADSVKGRFTISRDNSKNTLYLQMNSLRAEDTAVYYCARDGSHMDKPPGYVFAFWGQGTLVTVSS
VL: DIQMTQSPSSLSASVGDRVTITCRASQGIKNYLNWYQQKPGKAPKLLIGAASSLQSGVPSRFSGSGSGTDFTLTISSLQPEDFATYYCLQYYGMPPTFGQGTKVEIKRT
Size exclusion chromatography [1]: # (monomeric portion >90%)

B4: MOR04516: parental HuCAL GOLD anti-DKK1 Fab; VH SEQ ID NO: 7, VL SEQ ID NO: 26 (antibody, listed as Homo sapiens, V domains shown)
VH: QVQLVQSGAEVKKPGESLKISCKGSGYSFTNYYIGWVRQMPGKGLEWMGIIYPTDSYTNYSPSFQGQVTISADKSISTAYLQWSSLKASDTAMYYCARGIPFRMRGFDYWGQGTLVTVSS
VL: DIVLTQPPSVSGAPGQRVTISCSGSSSNIGSSFVNWYQQLPGTAPKLLIGNNSNRPSGVPDRFSGSKSGTSASLAITGLQSEDEADYYCASFDMGSPNVVFGGGTKLTVLGQ
Size exclusion chromatography [1]: # (monomeric portion >90%)

Binding activity w/50% Human serum vs 4% BSA (%) [2]: >83* %
B5: MOR04954: affinity-optimized Fab from MOR04470; VH SEQ ID NO: 18, VL SEQ ID NO: 37 (antibody, listed as Homo sapiens, V domains shown)
VH: QVQLVESGGGLVQPGGSLRLSCAASGFTFSSYWMSWVRQAPGKGLEWVSVIEHKDKGGTTYYAASVKGRFTISRDNSKNTLYLQMNSLRAEDTAVYYCARHGIDFDHWGQGTLVTVSS
VL: DIALTQPASVSGSPGQSITISCTGTSSDLGGYNYVSWYQQHPGKAPKLMIYDVNNRPSGVSNRFSGSKSGNTASLTISGLQAEDEADYYCQSYASGNTKVVFGGGTKLTVLGQ

B6: MOR04455: parental HuCAL GOLD anti-DKK1 Fab; VH SEQ ID NO: 3, VL SEQ ID NO: 22 (antibody, listed as Homo sapiens, V domains shown)
VH: QVQLVESGGGLVQPGGSLRLSCAASGFTFSSYGMSWVRQAPGKGLEWVSGISGSGSYTYYADSVKGRFTISRDNSKNTLYLQMNSLRAEDTAVYYCARHYMDHWGQGTLVTVSS
VL: DIQMTQSPSSLSASVGDRVTITCRASQDISNYLHWYQQKPGKAPKLLIYGASNLQSGVPSRFSGSGSGTDFTLTISSLQPEDFAVYYCQQYDSIPMTFGQGTKVEIKRT
Size exclusion chromatography [1]: # (monomeric portion >90%)

inhibition of DKK1/LRP6 binding on cell surface [3]: specifically blocks this interaction
B7: MOR04910: affinity-optimized Fab from MOR04461; VH SEQ ID NO: 11, VL SEQ ID NO: 30; also used as MOR4910 IgG (antibody, listed as Homo sapiens, V domains shown)
VH: QVQLVESGGGLVQPGGSLRLSCAASGFTFSSYWMSWVRQAPGKGLEWVSGISYSGSNTHYADSVKGRFTISRDNSKNTLYLQMNSLRAEDTAVYYCARMGIDLDYWGQGTLVTVSS
VL: DIALTQPASVSGSPGQSITISCTGTSSDVGGFNYVSWYQQHPGKAPKLMIHDGSNRPSGVSNRFSGSKSGNTASLTISGLQAEDEADYYCQSWDVSPITAVFGGGTKLTVLGQ

B8: MOR04470: parental HuCAL GOLD anti-DKK1 Fab; VH SEQ ID NO: 6, VL SEQ ID NO: 25 (antibody, listed as Homo sapiens, V domains shown)
VH: B7 VH with G50V, Y53S, S54D, G55S, N57S, H59Y, M99H, L103F, Y105H
VL: B5 VL
Size exclusion chromatography [1]: # (monomeric portion >90%)

Binding activity w/50% Human serum vs 4% BSA (%) [2]: 83* %
B9: MOR04914: affinity-optimized Fab from MOR04470; VH SEQ ID NO: 14, VL SEQ ID NO: 33 (antibody, listed as Homo sapiens, V domains shown)
VH: B7 VH with G50V, Y53S, S54D, G55S, N57S, H59Y, M99H, L103F, Y105H
VL: B5 VL with A94T, S95Y, G96T, N97P, T98I, K99S, V100P

B10: MOR04461: parental HuCAL GOLD anti-DKK1 Fab; VH SEQ ID NO: 5, VL SEQ ID NO: 24 (antibody, listed as Homo sapiens, V domains shown)
VH: B7 VH
VL: DIALTQPASVSGSPGQSITISCTGTSSDVGGFNYVSWYQQHPGKAPKLMIHDGSNRPSGVSNRFSGSKSGNTASLTISGLQAEDEADYYCSTWDMTVDFVFGGGTKLTVLGQ
Size exclusion chromatography [1]: # (monomeric portion >90%)

Binding activity w/50% Human serum vs 4% BSA (%) [2]: 93* %
B11: MOR04921: affinity-optimized Fab from MOR04461; VH SEQ ID NO: 12, VL SEQ ID NO: 31 (antibody, listed as Homo sapiens, V domains shown)
VH: B7 VH
VL: B7 VL with S92T, D94A, V95T, I98L, T99S, A100S
